# Laboratory results: patent US20210162011A1
# Target: leptin receptor (LepRb), expressed on transfected HEK293 cells
# Experiment: cell-based or functional assay
"cells with a p-STAT3 positive nucleus, immunofluorescence [%]","cells with a p-STAT3 positive nucleus after leptin, immunofluorescence [%]",Substance
> 80,,leptin (ligand)
,< 10,recombinant human Batotin protein with a six-amino-acid His tag at its C-terminus (from UniProt Q96GX8 1-76) (ligand)
,< 10,recombinant mouse Batotin protein (76 aa) with a six-amino-acid His tag at its C-terminus (from UniProt Q8K1L6 1-76) (ligand)
